# Numbering of substitutions follows the chain as printed. In names and notes the source's numbering stands.
# T1: CD122 (human, UniProt P14784 27-239)
# T1 construct: also called IL-2Rβ; hIL-2 receptor
# T1 sequence: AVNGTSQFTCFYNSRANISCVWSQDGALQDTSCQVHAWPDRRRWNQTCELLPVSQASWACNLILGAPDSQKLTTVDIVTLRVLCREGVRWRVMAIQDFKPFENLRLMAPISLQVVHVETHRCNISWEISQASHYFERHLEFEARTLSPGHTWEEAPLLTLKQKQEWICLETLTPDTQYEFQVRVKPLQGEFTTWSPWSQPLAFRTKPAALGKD
# T2: AVITAG CD122/CD132 heterodimer (human, UniProt P14784 27-239; P31785 23-262)
# T2 construct: also called IL-2Rβ/γ
# T2 sequence 1: T1 sequence
# T2 sequence 2: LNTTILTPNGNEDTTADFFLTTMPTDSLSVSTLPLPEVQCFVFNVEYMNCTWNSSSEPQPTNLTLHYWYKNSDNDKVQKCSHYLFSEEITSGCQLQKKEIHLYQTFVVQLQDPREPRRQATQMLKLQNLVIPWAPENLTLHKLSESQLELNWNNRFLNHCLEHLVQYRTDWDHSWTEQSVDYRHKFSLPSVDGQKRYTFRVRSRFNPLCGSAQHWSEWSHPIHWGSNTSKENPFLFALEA
# T3: His-tagged IL-2Rα (CD25) protein (human, UniProt P01589 22-240)
# T3 construct: also called Human IL-2Rα
# T3 sequence: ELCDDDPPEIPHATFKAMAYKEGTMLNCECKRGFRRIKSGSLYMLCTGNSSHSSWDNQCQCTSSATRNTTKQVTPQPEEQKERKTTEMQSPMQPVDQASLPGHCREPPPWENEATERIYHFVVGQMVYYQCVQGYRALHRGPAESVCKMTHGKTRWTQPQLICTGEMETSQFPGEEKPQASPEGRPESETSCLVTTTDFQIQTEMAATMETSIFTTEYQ
# T4: His-tagged & Twin Strep-tagged human IL-2Rβ & IL-2Rγ heterodimer protein (human, UniProt P14784 27-239; P31785 23-262)
# T4 construct: also called Human IL-2Rβγ; human IL-2Rβγ (His)
# T4 sequence 1: T1 sequence
# T4 sequence 2: T2 sequence 2
# B1: IL-2-IL-15 Chimera 2 (T3A, C125S) (ligand)
# chain: APASSSTKKTQLQLEHLLLDLQMILNGIQSMEIDATTFKFYMPKKATELKHLQCLEEELKPLEEVLNLAQSKNFHLRPRDLISNINVIVLELKGSETTFMCEYADETATIVEFLNRWITFSQSIISTLT
# notes: hIL-2 with N29-L40 replaced by an IL-15 hinge fragment-containing peptide; no fusion partner is stated
# B2: IL-2-IL-15 Chimera 56 (T3A, C125S, S130R) (ligand)
# chain: B1 chain with S126R
# notes: no fusion partner is stated
# B3: IL-2-IL-15 Chimera 58 (T3A, L18C, Q126E) (ligand)
# chain: B1 chain with L18C, S121C, Q122E
# notes: no fusion partner is stated
# B4: IL-2-IL-15 Chimera 54 (T3A, C125S, Q126T) (ligand)
# chain: B1 chain with Q122T
# notes: no fusion partner is stated
# B5: IL-2-IL-15 Chimera 68 (T3A, C125S, Q126T, S130R) (ligand)
# chain: B1 chain with Q122T, S126R
# notes: no fusion partner is stated
# B6: hIL-2 Mutein (T3A, F42A, Y45A, L72G, C125S) (ligand)
# chain: APASSSTKKTQLQLEHLLLDLQMILNGINNYKNPKLTRMLTAKFAMPKKATELKHLQCLEEELKPLEEVLNGAQSKNFHLRPRDLISNINVIVLELKGSETTFMCEYADETATIVEFLNRWITFSQSIISTLT
# notes: no fusion partner is stated
# B7: IL-2-IL-15 Chimera 42 (E15K, N88A, C125S) (ligand)
# chain: B1 chain with A3T, E15K, N84A
# notes: no fusion partner is stated
# B8: IL-2-IL-15 Chimera 29 (I92A, C125S) (ligand)
# chain: B1 chain with A3T, I88A
# notes: no fusion partner is stated
# B9: IL-2-IL-15 Chimera 46 (T3A, C125S, Q126E) (ligand)
# chain: B1 chain with Q122E
# notes: no fusion partner is stated
# B10: IL-2-IL-15 Chimera 44 (T3A, L18C) (ligand)
# chain: B1 chain with L18C, S121C
# notes: no fusion partner is stated
# B11: IL-2-IL-15 Chimera 69 (T3A, L18S, C125S, Q126E) (ligand)
# chain: B1 chain with L18S, Q122E
# notes: no fusion partner is stated
# B12: IL-2-IL-15 Chimera 64 (T3A, L18C, Q126S) (ligand)
# chain: B1 chain with L18C, S121C, Q122S
# notes: no fusion partner is stated
# B13: hIL-2 Mutein (T3A, R38E, F42A, K76E, C125S) (ligand)
# chain: B6 chain with R38E, A45Y, G72L, K76E
# notes: no fusion partner is stated
# B14: Anti-PD-1/IL-2 fusion protein A1 (Fc fusion)
# chain 1: QVQLLESGGGLVKPGGSLRLSCAASGRTYAMGWFRRAPGKESEFVAEIRWSSTFTDYADSVKGRFTISRDNAENSAYLQMNSLRAEDTAVYHCAAQTSQRGTLYDSYGQGTQVTVSSESKYGPPCPPCPAPEFLGGPSVFLFPPKPKDTLMISRTPEVTCVVVDVSQEDPEVQFNWYVDGVEVHNAKTKPREEQFNSTYRVVSVLTVLHQDWLNGKEYKCKVSNKGLPSSIEKTISKAKGQPREPQVCTLPPSQEEMTKNQVSLSCAVKGFYPSDIAVEWESNGQPENNYKTTPPVLDSDGSFFLVSRLTVDKSRWQEGNVFSCSVMHEALHNHYTQKSLSLSLGAGGGGSGGGGSGGGGSAPASSSTKKTQLQLEHLSLDLQMILNGIQSMEIDATTFKFYMPKKATELKHLQCLEEELKPLEEVLNLAQSKNFHLRPRDLISNINVIVLELKGSETTFMCEYADETATIVEFLNRWITFSESIISTLT
# chain 2: QVQLLESGGGLVKPGGSLRLSCAASGRTYAMGWFRRAPGKESEFVAEIRWSSTFTDYADSVKGRFTISRDNAENSAYLQMNSLRAEDTAVYHCAAQTSQRGTLYDSYGQGTQVTVSSESKYGPPCPPCPAPEFLGGPSVFLFPPKPKDTLMISRTPEVTCVVVDVSQEDPEVQFNWYVDGVEVHNAKTKPREEQFNSTYRVVSVLTVLHQDWLNGKEYKCKVSNKGLPSSIEKTISKAKGQPREPQVYTLPPCQEEMTKNQVSLWCLVKGFYPSDIAVEWESNGQPENNYKTTPPVLDSDGSFFLYSRLTVDKSRWQEGNVFSCSVMHEALHNHYTQKSLSLSLGK
# notes: The two chains form a knobs-into-holes heterodimer
# Target: T1, CD122
# Test: BLI (OCTET RED96); receptor loaded on biosensor, IL-2 mutein in solution at 10 to 2,000 nM
# Procedure: (§1) CD122 and AVITAG CD122/CD132 heterodimer were purchased from ACROBIOSYSTEMS, Inc. The protein samples were diluted in the OCTET® kinetic buffer. […] The association and dissociation sensorgram was fitted by global or local fitting using the OCTET® Data Analysis HT software.
row,Kd [nM],Binder
1,104,B1
2,808,B2
3,188,B3
4,650,B4
5,466,B5
6,550,B6

# Target: T2, AVITAG CD122/CD132 heterodimer
# Test: as above
# Procedure: as §1
row,Kd [nM],Binder
1,11,B1
2,12,B2
3,229,B3
4,53,B7
5,3.5,B8
6,219,B9
7,12,B10
8,30,B4
9,322,B11
10,382,B12
11,32,B5
12,6.8,B6
13,1,B13

# Target: T5, His-tagged human PD-1 (human, UniProt Q15116 25-167, limits assumed)
# T5 construct: also called His-tagged human PD-1 protein
# T5 sequence (Q15116 25-167 limits assumed): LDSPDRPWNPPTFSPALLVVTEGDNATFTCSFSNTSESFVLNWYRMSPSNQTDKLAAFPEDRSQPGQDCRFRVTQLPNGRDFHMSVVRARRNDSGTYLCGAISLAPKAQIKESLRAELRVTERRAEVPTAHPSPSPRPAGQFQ
# Test: BLI (OCTET RED96); fusion protein A1 captured on anti-human-Fc (AHC) biosensor, serially diluted His-tagged human PD-1 in solution
# From the text: (§2) Anti-PD-1/IL-2 fusion protein A1 was made by co-expression of SEQ ID NOs: 160 and 161 in CHO cells. OCTET® RED96 was used to study the interaction between anti-PD-1/IL-2 fusion protein A1 and human PD-1 or IL-2 receptors. For the binding study of the human PD-1, anti-human-Fc (AHC) biosensors were used to capture anti-PD-1/IL-2 fusion protein A1. The coated biosensors were associated with serially diluted His-tagged human PD-1 protein at predetermined concentrations. For the binding study of human IL-2 receptors, anti-penta-HIS (HIS1K) biosensors were used to capture human IL-2Rα or human IL-2Rβγ (His) proteins. The coated biosensors were associated with serially diluted anti-PD-1/IL-2 fusion protein A1 at predetermined concentrations.
row,Kd [nM],Binder
1,5,B14

# Target: T3, His-tagged IL-2Rα (CD25) protein
# Test: BLI (OCTET RED96); His-tagged receptor captured on anti-penta-HIS (HIS1K) biosensor, serially diluted fusion protein A1 in solution
# From the text: as §2
row,binding result,Binder
1,no binding,B14

# Target: T4, His-tagged & Twin Strep-tagged human …
# Test: BLI (OCTET RED96); His-tagged receptor heterodimer captured on anti-penta-HIS (HIS1K) biosensor, serially diluted fusion protein A1 in solution
# From the text: as §2
row,Kd [nM],Binder
1,12,B14
